PMC10045995

How the values were obtained:
[1] = target: epidermal growth factor receptor (EGFR), expressed in sensor cells as fusion protein 1 (mNpu^N-EGFR) and fusion protein 2 (EGFR-Npu^C-rMTS-mCherry) (UniProt P00533)
[2] = target: epidermal growth factor receptor (EGFR), expressed in sensor cells as fusion protein 1 (mNpu^N-EGFR) and fusion protein 2 (EGFR-Npu^C-rMTS-mCherry) (UniProt P00533); remark: listed apart in the source

co-localisation (Pearson's r) of mCherry with mitochondrial stain in EGF-treated sensor cells (agonist/antagonist screen; untreated control 0.1) [1] [Pearson's r] | co-localisation (Pearson's r) of mCherry with mitochondrial stain in sensor cells co-treated with EGF and Cetuximab (400 nM) (EGF alone 0.8) [1] [Pearson's r] | co-localisation (Pearson's r) of mCherry with mitochondrial stain in sensor cells treated with EGF 0.001-100 ng/mL for 1 h (untreated control 0.08) [2] [Pearson's r] | limit of detection (LOD) of EGF by the sensor cells (mCherry translocation to mitochondria) [2] [ng/mL] | co-localisation (Pearson's r) of mCherry with mitochondrial stain in sensor cells treated with TGF-α (100 ng/mL) (untreated control 0.1) [1] [Pearson's r] | Substance
0.8 | 0.1 | 0.87 | 0.1 | – | epidermal growth factor (EGF) (from UniProt P01133 971-1023) (ligand)
– | – | – | – | 0.8 | transforming growth factor-α (TGF-α) (from UniProt P01135 40-89) (ligand)
